Experimental data as given in patent publication US6825325 (FRAUNHOFER GESELLSCHAFT ZUR FORDERUNG DER ANGEWANDTEN …, dated 2004).

What was measured:
[1] = target: T1, GST-30K fusion protein (bacterially expressed 30K TMV movement protein fused to GST) (Schistosoma japonicum; Tobacco mosaic …, UniProt P03583 1-268); assay: ELISA of scFvs (member of the panel of 10)
T1 construct: not shown: glutathione S-transferase, Schistosoma japonicum (Pharmacia GST-System)
T1 sequence (looked up): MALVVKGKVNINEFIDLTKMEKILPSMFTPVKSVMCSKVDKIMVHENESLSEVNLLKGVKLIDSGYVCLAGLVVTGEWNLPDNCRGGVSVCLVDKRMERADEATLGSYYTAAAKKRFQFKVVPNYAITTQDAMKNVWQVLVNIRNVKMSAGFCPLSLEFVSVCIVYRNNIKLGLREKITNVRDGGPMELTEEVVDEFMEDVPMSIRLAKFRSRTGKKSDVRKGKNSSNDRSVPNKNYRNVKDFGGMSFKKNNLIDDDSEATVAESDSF

[2] = target: bacterially expressed GST-protein alone (Schistosoma japonicum, UniProt P08515 1-218 = GST); assay: ELISA of scFvs (member of the panel of 10)
Sequence of bacterially expressed GST-protein alone (P08515 whole entry): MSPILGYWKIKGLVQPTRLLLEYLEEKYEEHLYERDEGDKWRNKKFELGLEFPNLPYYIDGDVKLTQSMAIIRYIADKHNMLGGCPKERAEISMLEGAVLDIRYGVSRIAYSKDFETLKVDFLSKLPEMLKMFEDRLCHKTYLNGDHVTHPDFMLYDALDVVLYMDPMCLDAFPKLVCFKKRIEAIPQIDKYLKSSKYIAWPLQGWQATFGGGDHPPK

B1: scFv 30-2 (scFv)
scFv: EVKLQQSGAELVKPGASVKISCKASDYSFTGYNMNWVKQSHGKSLEWIGNINPYYGSTSYNQKFKGKATLTVDKSSSTAYMQLNSLTSEDSAVYYCAVGGNYVDWFAYWGQGTLVTVSSGGGGSGGGGSGGGGSDILLTQSPLSLPVSLGDHASISCRSSQSLVHSNGNTYLHWYLQNPGQSPKLLIYKVSNRFSGIPDRFSGSGSGTDFTLKISRVEAEDLGVYFCSQSTHVPYTFGGGTKLELKRAVDAAAEQKLISEEDLNGAA
notes: also called 30K specific scFv No. 2; scFv 30K-2
B1: binds [1]; no binding [2].
